Our source for the screen value values is publication PMC7954794 (2021).

B1: S. cerevisiae Abp1 (full length; SH3 domain 535-592 mutated) / Hua2 (parent complex)
chain 1: MALEPIDYTTHSREIDAEYLKIVRGSDPDTTWLIISPNAKKEYEPESTGSSFHDFLQLFDETKVQYGLARVSPPGSDVEKIIIIGWCPDSAPLKTRASFAANFAAVANNLFKGYHVQVTARDEDDLDENELLMKISNAAGARYSIQTSSKQQGKASTPPVKKSFTPSKSPAPVSKKEPVKTPSPAPAAKISSRVNDNNDDDDWNEPELKERDFDQAPLKPNQSSYKPIGKIDLQKVIAEEKAKEDPRLVQKPTAAGSKIDPSSDIANLKNESKLKRDSEFNSFLGTTKPPSMTESSLKNDDDKVIKGFRNEKSPAQLWAERKAKQNSGNAETKAEAPKPEVPEDEPEGEPDVKDLKSKFEGLAASEKEEEEMENKFAPPPKKSEPTIISPKPFSKPQEPVKAEEAEQPKTDYKKIGNPLPGMHIEADNEEEPEENDDDWDDDEDEAAQPPLPSRNVASGAPVQKEEPEQEEIAPSLPSRNSIPAPKQEEAPEQAPEEEIEEEAEEAAPQLPSRSSAAPPPPPRRATPEKKPKENPWATAEYDYDAAEDNELTFVENDKIINIEFVDDDWWLGELEKDGSKGLFPSNYVSLGN
chain 2: MQQTKFGKMYLDHDSVVEYSEDEIVEADRITLGYKKRLSMIENQMRHLLEDFSLDVQQIEPILADLQKYYDAFLQLLQKRNKSLQCKRSTHQPVPSPMNSQTSTNAKVNLSGKLMKFQLNSVQKFDEENILRILQNKIEFEHYFQIDKGKKQKVLLLAVYQCLNGPTRLHKVLNIEGIIHNNSIRTILGKQVSSSKWTVFLYDVKLVLLAHRQDVPNLETSKMIVRYGDLFPCALYFKDHTAY

This assay covers variants of B1. Briefly: DHFR protein-fragment complementation in yeast (Abp1-DHFR F[1,2] x partner-DHFR F[3]), deep mutational scanning, second methotrexate selection vs reference; S. cerevisiae, DHFR-PCA selection in liquid with methotrexate at 30 C, two 72 h selections (the score uses the second); reference = the pre-selection culture.
Consider chain 1 E540V, for which the screen value was -2.31 DMS score: mean over two replicates of log2(f_test/f_ref + 0.5)/ln 2, minus the synonymous-codon median (not a log2 ….

For the variant chain 1 E540C, the screen value was -1.63 DMS score: mean over two replicates of log2(f_test/f_ref + 0.5)/ln 2, minus the synonymous-codon median (not a log2 ….

chain 1 E540A: the screen value is -0.942 DMS score: mean over two replicates of log2(f_test/f_ref + 0.5)/ln 2, minus the synonymous-codon median (not a log2 ….

Take chain 1 N592H: the screen value is -1.31 DMS score: mean over two replicates of log2(f_test/f_ref + 0.5)/ln 2, minus the synonymous-codon median (not a log2 ….

As for chain 1 N592D, the screen value is -0.398 DMS score: mean over two replicates of log2(f_test/f_ref + 0.5)/ln 2, minus the synonymous-codon median (not a log2 ….

In the case of chain 1 N549K, the screen value was -0.863 DMS score: mean over two replicates of log2(f_test/f_ref + 0.5)/ln 2, minus the synonymous-codon median (not a log2 ….

On to chain 1 N549V, for which the screen value was 1.32 DMS score: mean over two replicates of log2(f_test/f_ref + 0.5)/ln 2, minus the synonymous-codon median (not a log2 ….

Take chain 1 N549Y: the screen value is -1.27 DMS score: mean over two replicates of log2(f_test/f_ref + 0.5)/ln 2, minus the synonymous-codon median (not a log2 ….

As to chain 1 N549R, the screen value is -1.02 DMS score: mean over two replicates of log2(f_test/f_ref + 0.5)/ln 2, minus the synonymous-codon median (not a log2 ….

chain 1 A545S: the screen value is 0.0984 DMS score: mean over two replicates of log2(f_test/f_ref + 0.5)/ln 2, minus the synonymous-codon median (not a log2 ….

As to chain 1 A545R, the screen value is -0.103 DMS score: mean over two replicates of log2(f_test/f_ref + 0.5)/ln 2, minus the synonymous-codon median (not a log2 ….

Consider chain 1 A545C, for which the screen value was -0.621 DMS score: mean over two replicates of log2(f_test/f_ref + 0.5)/ln 2, minus the synonymous-codon median (not a log2 ….

Regarding chain 1 A545T, the screen value is -0.0243 DMS score: mean over two replicates of log2(f_test/f_ref + 0.5)/ln 2, minus the synonymous-codon median (not a log2 ….

For chain 1 A545K, the screen value is 0.224 DMS score: mean over two replicates of log2(f_test/f_ref + 0.5)/ln 2, minus the synonymous-codon median (not a log2 ….

As to chain 1 Y541Q, the screen value was -2.54 DMS score: mean over two replicates of log2(f_test/f_ref + 0.5)/ln 2, minus the synonymous-codon median (not a log2 ….

With chain 1 Y541H, the screen value was -1.01 DMS score: mean over two replicates of log2(f_test/f_ref + 0.5)/ln 2, minus the synonymous-codon median (not a log2 ….

As for chain 1 E575I, the screen value was -0.328 DMS score: mean over two replicates of log2(f_test/f_ref + 0.5)/ln 2, minus the synonymous-codon median (not a log2 ….

For the variant chain 1 E575A, the screen value was 0.223 DMS score: mean over two replicates of log2(f_test/f_ref + 0.5)/ln 2, minus the synonymous-codon median (not a log2 ….

For chain 1 E575V, the screen value was -0.317 DMS score: mean over two replicates of log2(f_test/f_ref + 0.5)/ln 2, minus the synonymous-codon median (not a log2 ….

For chain 1 V554W, the screen value is -0.15 DMS score: mean over two replicates of log2(f_test/f_ref + 0.5)/ln 2, minus the synonymous-codon median (not a log2 ….

As to chain 1 V554I, the screen value is -0.0296 DMS score: mean over two replicates of log2(f_test/f_ref + 0.5)/ln 2, minus the synonymous-codon median (not a log2 ….

As to chain 1 V554K, the screen value was 1.28 DMS score: mean over two replicates of log2(f_test/f_ref + 0.5)/ln 2, minus the synonymous-codon median (not a log2 ….

For chain 1 V554T, the screen value was 0.502 DMS score: mean over two replicates of log2(f_test/f_ref + 0.5)/ln 2, minus the synonymous-codon median (not a log2 ….

In the case of chain 1 V554A, the screen value was 0.779 DMS score: mean over two replicates of log2(f_test/f_ref + 0.5)/ln 2, minus the synonymous-codon median (not a log2 ….

Turning to chain 1 V554S, the screen value is 0.912 DMS score: mean over two replicates of log2(f_test/f_ref + 0.5)/ln 2, minus the synonymous-codon median (not a log2 ….

For the variant chain 1 I560V, the screen value was 0.522 DMS score: mean over two replicates of log2(f_test/f_ref + 0.5)/ln 2, minus the synonymous-codon median (not a log2 ….

Consider chain 1 I560Q, for which the screen value was -0.419 DMS score: mean over two replicates of log2(f_test/f_ref + 0.5)/ln 2, minus the synonymous-codon median (not a log2 ….

On to chain 1 I560L, for which the screen value is -0.196 DMS score: mean over two replicates of log2(f_test/f_ref + 0.5)/ln 2, minus the synonymous-codon median (not a log2 ….

Take chain 1 E555I: the screen value was 0.585 DMS score: mean over two replicates of log2(f_test/f_ref + 0.5)/ln 2, minus the synonymous-codon median (not a log2 ….

In the case of chain 1 E555G, the screen value was -0.256 DMS score: mean over two replicates of log2(f_test/f_ref + 0.5)/ln 2, minus the synonymous-codon median (not a log2 ….

Regarding chain 1 E555S, the screen value is 0.724 DMS score: mean over two replicates of log2(f_test/f_ref + 0.5)/ln 2, minus the synonymous-codon median (not a log2 ….

Turning to chain 1 E555D, the screen value is -1 DMS score: mean over two replicates of log2(f_test/f_ref + 0.5)/ln 2, minus the synonymous-codon median (not a log2 ….

As to chain 1 E555N, the screen value was -0.276 DMS score: mean over two replicates of log2(f_test/f_ref + 0.5)/ln 2, minus the synonymous-codon median (not a log2 ….

For chain 1 E555R, the screen value is 0.193 DMS score: mean over two replicates of log2(f_test/f_ref + 0.5)/ln 2, minus the synonymous-codon median (not a log2 ….

With chain 1 E555H, the screen value was -0.509 DMS score: mean over two replicates of log2(f_test/f_ref + 0.5)/ln 2, minus the synonymous-codon median (not a log2 ….

With chain 1 S579V, the screen value is -0.988 DMS score: mean over two replicates of log2(f_test/f_ref + 0.5)/ln 2, minus the synonymous-codon median (not a log2 ….

Regarding chain 1 Y587F, the screen value was -0.234 DMS score: mean over two replicates of log2(f_test/f_ref + 0.5)/ln 2, minus the synonymous-codon median (not a log2 ….

Turning to chain 1 Y587R, the screen value was -2.81 DMS score: mean over two replicates of log2(f_test/f_ref + 0.5)/ln 2, minus the synonymous-codon median (not a log2 ….

As to chain 1 Y587A, the screen value was -2.26 DMS score: mean over two replicates of log2(f_test/f_ref + 0.5)/ln 2, minus the synonymous-codon median (not a log2 ….

Turning to chain 1 I559L, the screen value was -0.0963 DMS score: mean over two replicates of log2(f_test/f_ref + 0.5)/ln 2, minus the synonymous-codon median (not a log2 ….

On to chain 1 K576N, for which the screen value was -0.58 DMS score: mean over two replicates of log2(f_test/f_ref + 0.5)/ln 2, minus the synonymous-codon median (not a log2 ….

As for chain 1 K576S, the screen value is -0.288 DMS score: mean over two replicates of log2(f_test/f_ref + 0.5)/ln 2, minus the synonymous-codon median (not a log2 ….

With chain 1 K576H, the screen value was -0.301 DMS score: mean over two replicates of log2(f_test/f_ref + 0.5)/ln 2, minus the synonymous-codon median (not a log2 ….

For chain 1 F564H, the screen value was -2.23 DMS score: mean over two replicates of log2(f_test/f_ref + 0.5)/ln 2, minus the synonymous-codon median (not a log2 ….

On to chain 1 N561K, for which the screen value is -0.913 DMS score: mean over two replicates of log2(f_test/f_ref + 0.5)/ln 2, minus the synonymous-codon median (not a log2 ….

In the case of chain 1 N561D, the screen value is -0.211 DMS score: mean over two replicates of log2(f_test/f_ref + 0.5)/ln 2, minus the synonymous-codon median (not a log2 ….

For the variant chain 1 T552R, the screen value was -1.02 DMS score: mean over two replicates of log2(f_test/f_ref + 0.5)/ln 2, minus the synonymous-codon median (not a log2 ….

In the case of chain 1 T552A, the screen value was -0.173 DMS score: mean over two replicates of log2(f_test/f_ref + 0.5)/ln 2, minus the synonymous-codon median (not a log2 ….

Turning to chain 1 L571R, the screen value was -1.06 DMS score: mean over two replicates of log2(f_test/f_ref + 0.5)/ln 2, minus the synonymous-codon median (not a log2 ….

On to chain 1 L571D, for which the screen value was -0.576 DMS score: mean over two replicates of log2(f_test/f_ref + 0.5)/ln 2, minus the synonymous-codon median (not a log2 ….

On to chain 1 L571C, for which the screen value was -0.177 DMS score: mean over two replicates of log2(f_test/f_ref + 0.5)/ln 2, minus the synonymous-codon median (not a log2 ….

Regarding chain 1 L571E, the screen value is 1.04 DMS score: mean over two replicates of log2(f_test/f_ref + 0.5)/ln 2, minus the synonymous-codon median (not a log2 ….

For the variant chain 1 L571F, the screen value is 0.614 DMS score: mean over two replicates of log2(f_test/f_ref + 0.5)/ln 2, minus the synonymous-codon median (not a log2 ….

For the variant chain 1 E550Q, the screen value is -2.17 DMS score: mean over two replicates of log2(f_test/f_ref + 0.5)/ln 2, minus the synonymous-codon median (not a log2 ….

Consider chain 1 V565M, for which the screen value was -1.83 DMS score: mean over two replicates of log2(f_test/f_ref + 0.5)/ln 2, minus the synonymous-codon median (not a log2 ….

Regarding chain 1 V565C, the screen value was 0.907 DMS score: mean over two replicates of log2(f_test/f_ref + 0.5)/ln 2, minus the synonymous-codon median (not a log2 ….

Turning to chain 1 V565K, the screen value was -2.9 DMS score: mean over two replicates of log2(f_test/f_ref + 0.5)/ln 2, minus the synonymous-codon median (not a log2 ….

Take chain 1 V565S: the screen value was -0.833 DMS score: mean over two replicates of log2(f_test/f_ref + 0.5)/ln 2, minus the synonymous-codon median (not a log2 ….

chain 1 I562V: the screen value was 0.21 DMS score: mean over two replicates of log2(f_test/f_ref + 0.5)/ln 2, minus the synonymous-codon median (not a log2 ….

As to chain 1 P535K, the screen value was -0.44 DMS score: mean over two replicates of log2(f_test/f_ref + 0.5)/ln 2, minus the synonymous-codon median (not a log2 ….

As for chain 1 P535I, the screen value is 1.56 DMS score: mean over two replicates of log2(f_test/f_ref + 0.5)/ln 2, minus the synonymous-codon median (not a log2 ….

For the variant chain 1 P535L, the screen value is 0.129 DMS score: mean over two replicates of log2(f_test/f_ref + 0.5)/ln 2, minus the synonymous-codon median (not a log2 ….

Turning to chain 1 P535R, the screen value was 0.0703 DMS score: mean over two replicates of log2(f_test/f_ref + 0.5)/ln 2, minus the synonymous-codon median (not a log2 ….

For the variant chain 1 P535H, the screen value is -0.124 DMS score: mean over two replicates of log2(f_test/f_ref + 0.5)/ln 2, minus the synonymous-codon median (not a log2 ….

Turning to chain 1 P535A, the screen value was 1.23 DMS score: mean over two replicates of log2(f_test/f_ref + 0.5)/ln 2, minus the synonymous-codon median (not a log2 ….

Consider chain 1 P535T, for which the screen value is 0.611 DMS score: mean over two replicates of log2(f_test/f_ref + 0.5)/ln 2, minus the synonymous-codon median (not a log2 ….

Take chain 1 E563V: the screen value is -0.477 DMS score: mean over two replicates of log2(f_test/f_ref + 0.5)/ln 2, minus the synonymous-codon median (not a log2 ….

Consider chain 1 E563C, for which the screen value is -0.992 DMS score: mean over two replicates of log2(f_test/f_ref + 0.5)/ln 2, minus the synonymous-codon median (not a log2 ….
